Patent US20170029794

Legend:
[1] = system: TALEN right arm (pCLS9996) (artificial (Xanthomonas TALE?)); assay: cell_activity; conditions: paired with left arm P2; 153 of 153 galactose colonies of homozygous sup4-(CAG) diploid yeast show repeat contraction; >99% gene conversion in heterozygous …
[2] = system: TALEN left arm (pCLS16715) (artificial (Xanthomonas TALE?)); assay: cell_activity; conditions: paired with right arm P1; 153 of 153 galactose colonies of homozygous sup4-(CAG) diploid yeast show repeat contraction; >99% gene conversion in heterozygous …

Row | Sequence | activity [1] | activity [2]
1 | GCTGCTGCTGCTGCT (double strand) [right TALE target site in sup4-(CAG)] | 100% | –
2 | GTGATCCCCCCAGCA (double strand) [left TALE target site in sup4-(CAG)] | – | 100%
